In patent publication US7888090B2, “Mutants of O6-alkylguanine-DNA alkyltransferase” (Ecole Polytechnique Federale de Lausanne, priority 2004, dated 2011):

What was measured:
[1] = Reaction of two AGT variants in one sample with CPTG and BG-Bt; assay type: biochemical; settings: CPTG and BG-Bt both at 5 μM, 30 minutes
Procedure: FIG. 2: Western blot of the reaction of wild type hAGT (GST-hAGT fusion protein) and AGTM with the two substrates N^9-cyclopentyl-O^6-bromophenyl-guanine (CPTG) and biotinylated O^6-benzylguanine (BG-Bt, substance 3a of Juillerat et al. 2003) as described in Example 7. BG-Bt is present in all samples at 5 μM. Detection with neutravidin-peroxidase conjugate and luminescent peroxidase substrate detecting any AGT reacted with BG-Bt. Even under simultaneous incubation with identical concentrations of CPTG and BG-Bt only about 5% of GST-hAGT reacts with substrate BG-Bt.
Within the experiment two tags with different size for the two AGT proteins are used: The His-tagged AGTM (˜20 kDa) and GST-hAGT (cloned and prepared as described in Example 1, but starting with the wild type hAGT gene, ˜48 kDa) are diluted to 0.2 μM and 1.2 μM final concentration, respectively, in reaction buffer containing 50 mM HEPES, 1 mM DTT, 200 mg/mL BSA (pH 7.3). The sample is incubated with a mixture of substrates N^9-cyclopentyl-O^6-bromophenyl-guanine (CPTG; 0, 5 and 10 μM final concentrations) and biotinylated O^6-benzylguanine (BG-Bt, 5 μM final concentration) for 30 minutes. The reaction is quenched by addition of SDS-Laemmli buffer and subjected to Western blotting analysis (Example 1). As the two AGT variants have different masses, the two proteins can be separated on an acrylamide gel and analyzed independently. […] At the same concentration (both substrates at 5 μM final concentration), 95% of GST-hAGT reacts with CPTG, versus only 5% of His-tagged AGTM.

[2] = Stability after reaction with BG-FL; assay type: physicochemical
Procedure: Stability before reaction is determined for the mutant AGT or for a mutant AGT fusion protein by incubating purified samples in buffered aqueous solution for up to two weeks at 4° C. and up to six months at −20° C. At several time points, aliquots are taken and concentration of reactive AGT is estimated as described by Juillerat et al., Chem Biol 10:313-317, 2003. Stability for wild type AGT and the AGT mutant after reaction with a labelled substrate and after subsequent separation from unreacted substrate is determined by quantifying the concentration of the label in the soluble fraction over up to two weeks at 4° C. and up to three months at −20° C.
Stability after reaction: The vector pBAD/H is A (Invitrogen) is modified by cloning synthetic oligonucleotides (SEQ ID NO:29 and SEQ ID NO:30) between the NcoI and HindIII sites to include a 12×His-tag and SbfI and AscI cloning sites. The gene of AGTM is amplified with primers SEQ ID NO:31 and SEQ ID NO:32 and cloned between the SbfI/AscI sites into this vector. Wild type AGT and mutant AGT (Lys125Ala, Ala127Thr, Arg128Ala, Asn157Gly, Ser159Glu) are amplified with primers SEQ ID NO:31 and SEQ ID NO:33 and cloned into this vector. Protein expression is carried out in E. coli strain Top 10. An exponentially growing culture is induced with 0.2% arabinose, and the expression is carried out for 16 hours at 28° C. The cells are lysed by adding buffer to 10 ml/g containing 0.5 M NaCl, 80 mM imidazole, 1% Triton, 250 µM PMSF, 1 mM […]-mercaptoethanol, 5 mg/ml lysozyme, 20 µg/ml DNase and stirring for 45 min. […]
The AGT proteins at 10 µM) are quantitatively reacted with fluorescein-modified O^6-benzyl-guanine (substance 5 of Juillerat et al, Chem Biol 10:313-317, 2003, BG-FL, 20 µM) and purified over a size exclusion column (Econopac 10 DG, Bio-Rad) and incubated for 7 days. […] The fluorescence of the supernatant is measured with a Victor2 fluorescence plate reader (Perkin Elmer, excitation/emission at 485/535 nm).

[3] = Expression yield of soluble GST-AGT fusion protein; parameters: species or system E. coli; settings: comparator not stated
Method in brief: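 GST-AGT fusions expressed in E. coli BL21, induced with 0.5 mM IPTG for 3.5 h at 24 °C, and purified from the soluble fraction on glutathione sepharose. Soluble and insoluble fractions compared by SDS-PAGE. Yield taken from A280 relative to wild-type hAGT purified the same way.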

B1: AGTM: AGT mutant Cys62Ala, Gln115Ser, Gln116His, Lys125Ala, Ala127Thr, Arg128Ala, Gly131Lys, Gly132Thr, Met134Leu, Arg135Ser, Cys150Asn, Ser151Ile, Ser152Asn, Asn157Gly, Ser159Glu, truncated after … (protein, UniProt P16455 1-207, looked up, variant C62A Q115S Q116H K125A A127T R128A G131K G132T M134L R135S C150N S151I S152N N157G S159E del183-207)
Methylated-DNA--protein-cystei …: MDKDCEMKRTTLDSPLGKLELSGCEQGLHEIKLLGKGTSAADAVEVPAPAAVLGGPEPLMQATAWLNAYFHQPEAIEEFPVPALHHPVFQQESFTRQVLWKLLKVVKFGEVISYSHLAALAGNPAATAAVKTALSGNPVPILIPCHRVVNINGAVGGYEGGLAVKEWLLAHEGHRLGKPGLG
modifications: His tag
fraction of protein reacting with CPTG [1]: 5% | time labeled protein remains stable in solution [2]: over 7 days | expression yield in E. coli [3]: increased expression yield
